Test [1] has as its target T1, human CD3 on CD3+ Jurkat cells (human, UniProt P07766 23-207; P09693 23-182; P04234 22-171).
T1 construct: whole, on cells; also called CD3 positive Jurkat cells
The test is described as follows: FACS on CD3+ Jurkat cells.

The target in test [2] is T1, human CD3 on CD3+ Jurkat cells. The test is described as follows: FACS on CD3+ Jurkat cells. The source holds these as a separate data set.
The target is the same in test [3]. The test is described as follows: FACS on CD3+ Jurkat cells. This is another data set of the same source.
In test [4] the target is cynomolgus CTLA-4 protein (cynomolgus, UniProt G7PL88 36-161, Probably biotinylated for streptavidin-PE detection, as described for the human CTLA-4 reagent in paragraph 775; the letters cannot carry this.). The test can be described thus: FACS competition: blocks cynomolgus CTLA-4 protein binding to human CD80 engineered cells. The method, then: (§1) Competitive FACS was used to test whether the antibodies could block human or cynomolgus CTLA-4 binding to hCD80 on cell surface. […] Then the mixtures of antibody and CTLA-4 were added to the cells and incubated for 1 hour at 4° C. The cells were washed two times with 200 μl FACS washing buffer (DPBS containing 1% BSA). Streptavidin PE (BD Pharmingen-554061) 1 to 600 diluted in FACS buffer was added to the cells and incubated at 4° C. for 1 hour. Additional washing steps were performed two times with 200 μL FACS washing buffer followed by centrifugation at 1500 rpm for 4 minutes at 4° C. Finally, the cells were resuspended in 100 μL FACS washing buffer and fluorescence values were measured by flow cytometry and analyzed by FlowJo.

Test [5] has as its target T2, cynomolgus CTLA-4 on engineered 293F cells (W316-293F.cynoPro1.F1.Pool) (cynomolgus).
T2 construct: whole, on cells; also called cynomolgus CTLA-4 engineered cells
The test can be described thus: FACS binding to cynomolgus CTLA-4 engineered cells. The method, then:
4-fold titrated Abs with 1% BSA DPBS from 40 μg/ml to 0.00004 μg/ml were added to the cells. Plates were incubated at 4° C. for 1 hour. After wash, […] 1:150 diluted PE-labeled goat anti-human antibody (Jackson 109-115-098) was added to each well and the plates were incubated at 4° C. for 1 hour. The binding of the antibodies onto the cells was tested by flow cytometry and the mean fluorescence intensity (MFI) was analyzed by FlowJo.
For orientation: A flow cytometer gives signals particle by particle.

The target of test [6] is T3, biotinylated human CTLA-4.ECD.hFc (W316-hPro1.ECD.hFc.Biotin) (human, UniProt P16410 36-161, biotin-labelled (site not stated)).
T3 construct: extracellular domain; In-house protein; also called hCTLA-4.ECD.hFc-Biotin; human CTLA-4 protein
The test is described as follows: FACS competition: blocks biotinylated human CTLA-4.ECD.hFc binding to human CD80 engineered cells. The procedure: as §1

The target of test [7] is T4, human PD-1 on engineered CHO-S cells (W305-CHO-S.hPro1.C6) (human, UniProt Q15116 25-288).
T4 construct: whole, on cells; also called human PD-1 engineered cells; PD-1+ cells
The test is described as follows: ELISA binding to human PD-1 (legend says 'engineered cells'; the form of the antigen in the ELISA is not described). In general terms: An ELISA detects its analyte on a solid surface through an enzyme-linked reagent.

The target in test [8] is T4, human PD-1 on engineered CHO-S cells …. The test can be described thus: FACS binding to human PD-1 engineered cells. The procedure:
Engineered human PD-1 expressing cells W305-CHO-S.hPro1.C6 were seeded at 1×10⁵ cells/well in U-bottom 96-well plates (COSTAR 3799). Antibodies with 3.16-fold titration in 1% BSA DPBS from 200 nM to 0.002 nM were added to the cells. The plates were incubated at 4° C. for 1 hour. After wash, […] 1:125 diluted PE-labeled goat anti-human antibody (Jackson 109-115-098) was added to each well and the plates were incubated at 4° C. for 1 hour. The binding of the antibodies onto the cells was tested by flow cytometry and the mean fluorescence intensity (MFI) was analyzed by FlowJo.

Test [9] concerns the target T5, human CTLA-4 on engineered 293F cells (W316-293F.hPro1.FL) (human, UniProt P16410 36-223).
T5 construct: whole, on cells; also called human CTLA-4 engineered cells; CTLA-4+ cells
The test is described as follows: FACS binding to human CTLA-4 engineered cells. The procedure:
3.16-fold titrated Abs with 1% BSA DPBS from 200 nM to 0.002 nM were added to the cells. Plates were incubated at 4° C. for 1 hour. After wash, […] 1:150 diluted PE-labeled goat anti-human antibody (Jackson 109-115-098) was added to each well and the plates were incubated at 4° C. for 1 hour. The binding of the antibodies onto the cells was tested by flow cytometry and the mean fluorescence intensity (MFI) was analyzed by FlowJo.

Test [10] concerns the target T5, human CTLA-4 on engineered 293F cells …. The test is described as follows: ELISA binding to human CTLA-4 (legend says 'engineered cells'; the form of the antigen in the ELISA is not described).
Test [11] addresses T6, human CD19 on CD19+ B cell lines (Ramos, Raji) (human, UniProt P15391 20-556).
T6 construct: whole, on cells; also called CD19+ Ramos cells; CD19+ Raji cells
T6 sequence (looked up): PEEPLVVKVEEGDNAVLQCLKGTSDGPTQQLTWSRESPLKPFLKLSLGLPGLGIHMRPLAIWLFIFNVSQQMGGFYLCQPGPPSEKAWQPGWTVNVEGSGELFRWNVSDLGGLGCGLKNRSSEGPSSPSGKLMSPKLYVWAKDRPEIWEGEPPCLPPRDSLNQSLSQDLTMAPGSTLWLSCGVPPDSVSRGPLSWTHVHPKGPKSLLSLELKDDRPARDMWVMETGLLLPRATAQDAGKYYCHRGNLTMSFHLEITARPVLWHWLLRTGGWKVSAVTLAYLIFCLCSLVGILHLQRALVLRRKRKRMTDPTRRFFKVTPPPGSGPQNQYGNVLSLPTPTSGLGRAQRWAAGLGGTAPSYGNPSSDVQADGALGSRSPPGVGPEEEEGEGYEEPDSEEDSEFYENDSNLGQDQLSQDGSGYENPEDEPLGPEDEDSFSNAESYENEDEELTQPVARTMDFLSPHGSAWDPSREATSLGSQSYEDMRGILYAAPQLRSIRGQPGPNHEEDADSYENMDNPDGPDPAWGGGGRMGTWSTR
The test is described as follows: FACS on CD19+ Ramos cells.

For test [12], the target named is T6, human CD19 on CD19+ B cell lines …. The test can be described thus: FACS on CD19+ Ramos cells. The source holds these as a separate data set.

Usually EC50 (read off the curve) stands for the concentration at which the effect is half-maximal. Read a low EC50 (read off the curve) as an effect from little substance. A word on the IC50: it is the concentration that inhibits the measured activity by half. Read a high IC50 as lower potency. As usually defined, the EC50 is the midpoint of the concentration-response curve.

Where two headings read alike, the source gives them in different places.

T1 sequence (P07766 23-207, chain 1 of 3): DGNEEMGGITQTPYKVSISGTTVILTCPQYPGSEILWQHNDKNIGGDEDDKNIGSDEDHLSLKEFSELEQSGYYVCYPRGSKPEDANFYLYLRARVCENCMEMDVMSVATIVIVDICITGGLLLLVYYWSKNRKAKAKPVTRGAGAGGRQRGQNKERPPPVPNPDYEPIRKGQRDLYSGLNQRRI
T1 sequence (P09693 23-182, chain 2 of 3): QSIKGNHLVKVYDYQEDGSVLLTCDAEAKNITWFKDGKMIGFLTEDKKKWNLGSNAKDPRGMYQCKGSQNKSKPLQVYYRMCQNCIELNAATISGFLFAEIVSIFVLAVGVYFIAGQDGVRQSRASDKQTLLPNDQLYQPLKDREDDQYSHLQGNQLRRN
T1 sequence (P04234 22-171, chain 3 of 3): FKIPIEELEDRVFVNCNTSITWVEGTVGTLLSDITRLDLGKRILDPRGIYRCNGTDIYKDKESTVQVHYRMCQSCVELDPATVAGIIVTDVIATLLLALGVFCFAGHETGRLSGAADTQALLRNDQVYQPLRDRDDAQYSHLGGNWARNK
T4 sequence (Q15116 25-288, change not shown): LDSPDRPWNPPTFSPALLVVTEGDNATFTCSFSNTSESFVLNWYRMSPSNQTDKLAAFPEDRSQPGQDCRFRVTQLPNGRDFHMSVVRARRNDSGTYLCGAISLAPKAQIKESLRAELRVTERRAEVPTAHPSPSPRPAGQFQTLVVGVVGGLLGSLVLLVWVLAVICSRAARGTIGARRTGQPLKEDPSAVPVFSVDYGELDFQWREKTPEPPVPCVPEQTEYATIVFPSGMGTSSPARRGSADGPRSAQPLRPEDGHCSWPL
T5 sequence (P16410 36-223, change not shown): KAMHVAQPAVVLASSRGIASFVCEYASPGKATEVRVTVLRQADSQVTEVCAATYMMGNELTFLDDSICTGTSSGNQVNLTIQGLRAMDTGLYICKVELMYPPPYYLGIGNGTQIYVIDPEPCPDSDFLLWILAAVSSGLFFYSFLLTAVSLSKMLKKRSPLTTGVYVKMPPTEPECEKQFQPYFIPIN
T3 sequence (P16410 36-161): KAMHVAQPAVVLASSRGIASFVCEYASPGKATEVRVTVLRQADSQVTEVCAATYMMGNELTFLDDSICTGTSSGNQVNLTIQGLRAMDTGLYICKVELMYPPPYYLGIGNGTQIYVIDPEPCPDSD
cynomolgus CTLA-4 protein, sequence (G7PL88 entry or part of it limits assumed): as the sequence (P16410 36-161) above, with S14N, I18T, L106M counted along it

B1: anti-CD3 antibody T3 (wild type, IgG1) (antibody, V domains shown)
VH: QVQLVQSGAEVKKPGSSVKVSCKASGFAFTDYYIHWVRQAPGQGLEWMGWISPGNVNTKYNENFKGRVTITADKSTSTAYMELSSLRSEDTAVYYCARDGYSLYYFDYWGQGTLVTVSS
VL: DIVMTQSPDSLAVSLGERATINCKSSQSLLNSRTRKNYLAWYQQKPGQPPKLLIYWASTRQSGVPDRFSGSGSGTDFTLTISSLQAEDVAVYYCTQSHTLRTFGGGTKVEIK
notes: Human IgG1; also called T3-IgG1; native antibody T3
B1: the “EC50 (read off the curve)” value in test [1] and in [2] was about 200 pM in each case.

B2: T3-IgG4 (antibody, V domains shown)
VH: B1 VH
VL: B1 VL
notes: m1 is the IgG1 form of the same antibody; also called wild type anti-CD3 antibody T3 in IgG4 format
Turning to B2, the concentration for a half-maximal effect (EC50 (read off the curve)) in test [3] was about 50 pM.

B3: W3162_1.154.8-z35-IgG1K (antibody, V domains shown)
VH: QVQLVQSGAEVKKPGSSVKVSCKASGYTFTNYFMNWVRQAPGQGLEWMGRVDPEQGRADYAEKFKKRVTITADKSTSTAYMELSSLRSEDTAVYYCARRAMDNYGFAYWGQGTLVTVSS
VL: EIVLTQSPDFQSVTPKEKVTITCSANSALSYMYWYQQKPDQSPKLWVHGTSNLASGVPSRFSGSGSGTDFTLTINSLEAEDAATYYCHHWSNTQWTFGGGTKVEIK
notes: anti-CTLA-4 antibody, parent of the T5 arm; also called W3162_1.154.8-z35 (named T5)
For the molecule B3, the concentration for half-maximal inhibition (IC50) amounted to 1470 pM in test [4] and 594 pM in test [6]. This molecule showed an EC50 in test [5] of 699 pM. Further, the “Top(MFI)” value in test [5] is 10800 MFI.

B4: U6T4.G26.IgG4, bispecific anti-PD-1 x CTLA-4 (bispecific antibody)
chain: EVQLLESGGGLVQPGGSLRLSCAASGFTFSSHAMSWVRQAPGKGLEWVSTITGGGGSIYYADSVKGRFTISRDNSKNTLYLQMNSLRAEDTAVYYCAKNRAGEGYFDYWGQGTLVTVLEDLKNVFPPEVAVFEPSEAEISHTQKATLVCLATGFYPDHVELSWWVNGKEVHSGVCTDPQPLKEQPALQDSRYALSSRLRVSATFWQNPRNHFRCQVQFYGLSENDEWTQDRAKPVTQIVSAEAWGRGGGGSGGGGSDIVMTQTPLSLSVTPGQPASISCRSSQSLLNSDGNTYLYWYLQKPGQSPQLLIYLVSKLGSGVPNRFSGSGSGTDFTLKISRVEAEDVGVYYCVQGTHDPWTFGGGTKVEIKRTVAAPSVFIFPPSDEQLKSGTASVVCLLNNFYPREAKVQWKVDNALQSGNSQESVTEQDSKDSTYSLSSTLTLSKADYEKHKVYACEVTHQGLSSPVTKSFNRGEC
light: SYELTQPLSVSVALGQTARITCGGDNIGNKDVHWYQQKPGQAPVLVIYRDSNRPSGIPEGFSGSNSGNTATLTISRAQAGDEADYYCQVWDSIWVFGGGTKLTVLPDIQNPDPAVYQLRDSKSSDKSVCLFTDFDSQTQVSQSKDSDVYITDKCVLDMRSMDFKSNSAVAWSQKSDFACANAFQNSIIPEDTFFPSPESS
heavy: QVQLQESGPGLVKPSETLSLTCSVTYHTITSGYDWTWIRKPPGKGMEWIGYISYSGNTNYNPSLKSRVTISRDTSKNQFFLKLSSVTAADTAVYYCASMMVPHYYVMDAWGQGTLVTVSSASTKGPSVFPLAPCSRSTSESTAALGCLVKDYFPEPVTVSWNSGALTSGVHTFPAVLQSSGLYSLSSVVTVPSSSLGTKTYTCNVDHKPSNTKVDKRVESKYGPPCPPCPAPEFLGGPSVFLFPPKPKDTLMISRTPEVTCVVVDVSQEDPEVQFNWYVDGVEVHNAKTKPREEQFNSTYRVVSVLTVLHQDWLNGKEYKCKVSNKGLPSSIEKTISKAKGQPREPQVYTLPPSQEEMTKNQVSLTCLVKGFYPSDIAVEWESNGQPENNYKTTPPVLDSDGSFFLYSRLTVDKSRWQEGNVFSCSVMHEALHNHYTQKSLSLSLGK
notes: Light-heavy crossed chimeric Fab; first chain is U6-HC fused to T4-LC; also called U6T4 antibody pair in G26 format
B4: the EC50 in test [7] was 102 pM; in test [8] it was 1840 pM; in [9] it was 59800 pM; in test [10], 177 pM.

B5: anti-CD19 antibody U4 (wild type) (antibody, V domains shown)
VH: QMQLVQSGPEVKKPGTSVKVSCKASGYAFTSYNMYWVRQARGQRLEWIGYIDPYNGDTTYNQKFKGRVTITRDMSTSTAYMELSSLRSEDTAVYYCLTTAYAMDYWGQGTLVTVSS
VL: DIQLTQSPSFLSASVGDRVTITCSASSTVNYMHWYQQKPGKAPKLLIYSTSNLASGVPSRFSGSGSGTEFTLTISSLQPEDFATYYCHQWSSYPYTFGQGTKLEIKR
notes: also called native U4; wild type antibody U4
B5: the “EC50 (read off the curve)” value in test [11] was about 300 pM; in test [12] it was about 500 pM.

For the origin of these results see patent publication US20240124586A1 (WUXI BIOLOGICS IRELAND, published 2024).
